Drawing on patent US20140255415A1 (Novartis, published 2014), this text covers Kd for 1 molecule.

Test [1] deals with T1, cynomolgus monkey LINGO-1 expressed on CHO-K1 cells (CHO-K1-cmLINGO-1) (cynomolgus monkey, UniProt Q9N008 34-614).
T1 construct: range 34-614; also called Cynomolgus LINGO-1; not shown: 2 amino acid residue linker
T1 sequence (looked up): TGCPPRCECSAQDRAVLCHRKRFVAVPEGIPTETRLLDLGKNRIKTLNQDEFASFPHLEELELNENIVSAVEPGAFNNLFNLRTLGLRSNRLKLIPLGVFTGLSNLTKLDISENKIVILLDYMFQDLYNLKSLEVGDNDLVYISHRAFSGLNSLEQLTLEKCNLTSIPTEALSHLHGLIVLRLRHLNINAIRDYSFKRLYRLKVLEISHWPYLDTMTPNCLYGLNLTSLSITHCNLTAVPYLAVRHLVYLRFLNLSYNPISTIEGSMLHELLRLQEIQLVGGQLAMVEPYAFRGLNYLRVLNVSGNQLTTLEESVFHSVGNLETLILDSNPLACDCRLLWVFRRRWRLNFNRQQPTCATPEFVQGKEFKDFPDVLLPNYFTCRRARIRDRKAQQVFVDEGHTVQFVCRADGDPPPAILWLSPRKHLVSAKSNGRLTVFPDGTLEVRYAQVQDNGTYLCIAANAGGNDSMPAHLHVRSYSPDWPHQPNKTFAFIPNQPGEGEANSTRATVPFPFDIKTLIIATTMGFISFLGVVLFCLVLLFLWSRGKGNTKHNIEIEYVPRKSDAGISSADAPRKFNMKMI
Briefly: apparent KD, FACS saturation binding on CHO-K1-cmLINGO-1 cells, Fab format. Here is the method: Cell based affinity of anti-LINGO-1 specific antibodies is determined by FACS saturation binding experiments. […] Otherwise the staining procedure is done identical to the FACS staining procedure described above.
In detail, CHO-K1-hLINGO-1, CHO-K1-cmLINGO-1 or CHO-K1-rLINGO-1 are detached from culture flasks by versene, washed with FACS buffer and resuspended in FACS buffer. Purified anti-LINGO-1 Fabs are serially diluted in FACS buffer and spread into round bottom 96-well microtiter plates (NUNC™, Wiesbaden, Germany). For each concentration, duplicate wells are incubated with 1.25×10⁴ cells for 30-60 min on ice in a total volume of 100 μl.

For test [2], the target named is T2, human LINGO-2 expressed on CHO-K1 cells (CHO-K1-hLINGO-2) (human, UniProt Q7L985 26-606).
T2 construct: range 26-606; not shown: 2 amino acid residue linker
T2 sequence (looked up): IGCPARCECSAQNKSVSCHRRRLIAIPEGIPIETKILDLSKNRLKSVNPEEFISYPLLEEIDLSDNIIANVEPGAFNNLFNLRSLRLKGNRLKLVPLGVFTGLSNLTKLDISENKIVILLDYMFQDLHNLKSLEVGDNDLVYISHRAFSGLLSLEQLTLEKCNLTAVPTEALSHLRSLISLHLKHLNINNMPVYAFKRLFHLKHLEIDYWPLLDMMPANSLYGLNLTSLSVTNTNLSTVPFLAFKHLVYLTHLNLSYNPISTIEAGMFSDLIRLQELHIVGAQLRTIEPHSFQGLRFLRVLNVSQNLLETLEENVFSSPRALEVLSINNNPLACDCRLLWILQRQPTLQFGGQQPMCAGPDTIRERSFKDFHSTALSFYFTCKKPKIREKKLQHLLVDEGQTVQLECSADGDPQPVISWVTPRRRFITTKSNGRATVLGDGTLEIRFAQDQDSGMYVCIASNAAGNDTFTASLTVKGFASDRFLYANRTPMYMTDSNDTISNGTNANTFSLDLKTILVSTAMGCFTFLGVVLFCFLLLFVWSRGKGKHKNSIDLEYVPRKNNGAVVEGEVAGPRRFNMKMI
Nature of the test: apparent KD, FACS saturation binding on CHO-K1-hLINGO-2 cells, Fab format.

B1: anti-LINGO-1 Fab 4785 (Fab, V domains shown)
VH: QVQLQQSGPGLVKPSQTLSLTCAISGDSVSDNSAAWSWIRQSPGRGLEWLGLIYLRSKWDNDYAVSVKSRITINPDTSKNQFSLQLNSVTPEDTAVYYCARTGRADEFDVWGQGTLVTVSS
VL: DIVLTQPPSVSGAPGQRVTISCSGSSSNIGNNYVSWYQQLPGTAPKLLISRNSKRPSGVPDRFSGSKSGTSASLAITGLQSEDEADYYCSTYDTFSIVFGGGTKLTVLG
In the case of B1, the Kd in test [1] is 0.26 nM; in test [2], 1.21 nM.
